Assay results: PMC4653696 (The Journal of Biological Chemistry, 2015)

Biological target: T1, Cdc11(E294C)-capped, otherwise Cys-less septin hetero-octamer (Cdc11-Cdc12-Cdc3-Cdc10-Cdc10-Cdc3-Cdc12-Cdc11) (S. cerevisiae, UniProt P32458 1-415; P32468 1-407; P32457 1-520; P25342 1-322, C43F | C137A | C138A | E294C | C40A | C278S | C124V | C253V | C279V | C266S, Alexa Fluor 555 maleimide (donor) or Alexa Fluor 647 maleimide (acceptor) on C294 (E294C); 0.7-0.8 dye molecules per subunit)
T1 construct: intact CTE (residues 303-415) restored; Cdc12, S. cerevisiae mitotic septin, Cys-less variant; Cdc3, S. cerevisiae mitotic septin, Cys-less variant; Cdc10, S. cerevisiae mitotic septin, Cys-less variant; The same preparation was labelled separately with donor (AF555) or acceptor (AF647); both are written as this one molecule; also called Cdc11^AF555; Cdc11^AF647; source: E. coli NiCo21 (DE3), …
Test: FRET or BRET; 25 nM donor (AF555)-labelled octamers titrated with acceptor (AF647)-labelled octamers, serial dilutions from 100 nM; 45 mM KCl, 50 mM Tris-HCl pH 8.0; room temperature, 1 h equilibration; triplicate; PCA and curve fit; apparent Kd of end-to-end association of rods
Settings: both partners purified

B1: Shs1(E344C ΔCTE)-capped, otherwise Cys-less septin hetero-octamer (complex, S. cerevisiae)
chain 1: MSTASTPPINLFRRKKEHKRGITYTMLLVGPAGTGKTAFANNLLETKIFPHKYQYGKSNASISSNPEVKVIAPTKVVSFNSKNGIPSYVSEFDPMRANLEPGITITSTSLELGGNKDQGKPEMNEDDTVFFNLIMTHGIGENLDDSLSSEEVMSYLEQQFDIVLAEETRIKRNPRFEDTRVHVALYFIEPTGHGLREVDVELMKSISKYTNVLPIITRADSFTKEELTQFRKNIMFDVERYNVPIYKFEVDPEDDDLESMEENQALASLQPFAIITSDTRDSEGRYVREYPWGIISIDDDKISDLKVLKNVLFGSHLQEFKDTTQNLLYENYRSEKLSSVANACEIGP
chain 2: MSAATATAAPVPPPVGISNLPNQRYKIVNEEGGTFTVMLAGESGLGKTTFINTLFQTVLKRADGQQHRQEPIRKTVEIDITRALLEEKHFELRVNVIDTPGFGDNVNNNKAWQPLVDFIDDQHDSYMRQEQQPYRTKKFDLRVHAVLYFIRPTGHGLKPIDIETMKRLSTRANLIPVIAKADTLTAQELQQFKSRIRQVIEAQEIRIFTPPLDADSKEDAKSGSNPDSAAVEHARQLIEAMPFAIVGSEKKFDNGQGTQVVARKYPWGLVEIENDSHSDFRKLRALLLRTYLLDLISTTQEMHYETYRRLRLEGHENTGEGNEDFTLPAIAPARKLSHNPRYKEEENALKKYFTDQVKAEEQRFRQWEQNIVNERIRLNGDLEEIQGKVKKLEEQVKSLQVKKSHLK
chain 3: MSLKEEQVSIKQDPEQEERQHDQFNDVQIKQESQDHDGVDSQYTNGTQNDDSERFEAAESDVKVEPGLGMGITSSQSEKGQVLPDQPEIKFIRRQINGYVGFANLPKQWHRRSIKNGFSFNLLVVGPDGIGKTTLMKTLFNNDDIEANLVKDYEEELANDQEEEEGQGEGHENQSQEQRHKVKIKSYESVIEENGVKLNLNVIDTEGFGDFLNNDQKSWDPIIKEIDSRFDQYLDAENKINRHSINDKRIHAVLYFIEPTGHYLKPLDLKFMQSVYEKVNLIPVIAKSDILTDEEILSFKKTIMNQLIQSNIELFKPPIYSNDDAENSHLSERLFSSLPYAVIGSNDIVENYSGNQVRGRSYPWGVIEVDNDNHSDFNLLKNLLIKQFMEELKERTSKILYENYRSSKLAKLGIKQDNSVFKEFDPISKQQEEKTLHEAKLAKLEIEMKTVFQQKVSEKEKKLQKSETELFARHKEMKEKLTKQLKALEDKKKQLELSINSASPNVNHSPVPTKKKGFLR
chain 4: MDPLSSVQPASYVGFDTITNQIEHRLLKKGFQFNIMVVGQSGLGKSTLINTLFASHLIDSATGDDISALPVTKTTEMKISTHTLVEDRVRLNINVIDTPGFGDFIDNSKAWEPIVKYIKEQHSQYLRKELTAQRERFITDTRVHAILYFLQPNGKELSRLDVEALKRLTEIANVIPVIGKSDTLTLDERTEFRELIQNEFEKYNFKIYPYDSEELTDEELELNRSVRSIIPFAVVGSENEIEINGETFRGRKTRWSAINVEDINQSDFVYLREFLIRTHLQDLIETTSYIHYEGFRARQLIALKENANSRSSAHMSSNAIQR
modifications: Alexa Fluor 555 maleimide (donor) on C344 (E344C)
notes: Cdc12, S. cerevisiae mitotic septin, Cys-less variant; Cdc3, S. cerevisiae mitotic septin, Cys-less variant; Cdc10, S. cerevisiae mitotic septin, Cys-less variant; also called Shs1 ΔCTE^AF555; source: E. coli NiCo21 (DE3), subunits co-expressed, purified (IMAC, chitin-agarose flow-through, SEC), maleimide dye-labelled; not shown: His6, N-terminal, kept; copies: 2 + 2 + 2 + 2
Q: For B1, which Kd is on record?
A: 30.4 nM
